# In publication PMC546161:
# Assays:
# [1] = biological target: His-Cdt1(193–447) (Xenopus) (UniProt Q9I9A7); test: Coomassie densitometry of the purified complex on SDS-PAGE
# [2] = biological target: His-Cdt1(193–447) (Xenopus) (UniProt Q9I9A7); test: SEC + other: glycerol gradient sedimentation
# Chain of UniProt Q9I9A7 (Q9I9A7 193-447): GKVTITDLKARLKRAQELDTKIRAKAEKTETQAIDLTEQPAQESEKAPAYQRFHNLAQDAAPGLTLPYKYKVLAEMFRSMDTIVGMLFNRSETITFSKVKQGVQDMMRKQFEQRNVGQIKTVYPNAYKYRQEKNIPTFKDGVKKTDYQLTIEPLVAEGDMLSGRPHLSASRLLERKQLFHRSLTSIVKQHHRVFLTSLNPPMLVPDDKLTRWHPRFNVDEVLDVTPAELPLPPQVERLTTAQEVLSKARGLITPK
substance,measurement,setting,value
"mini-geminin (residues 87–168), S-tagged (domain or fragment)",stoichiometry N (mini-geminin per Cdt1(193–447)),[1],1.9
same,stoichiometry N (mini-geminin per Cdt1(193–447)),[2],2
